Earlier results, collected in article PMC4451881.

Target: CK2beta (Homo sapiens) (UniProt P67870)
Sequence (P67870 2-215): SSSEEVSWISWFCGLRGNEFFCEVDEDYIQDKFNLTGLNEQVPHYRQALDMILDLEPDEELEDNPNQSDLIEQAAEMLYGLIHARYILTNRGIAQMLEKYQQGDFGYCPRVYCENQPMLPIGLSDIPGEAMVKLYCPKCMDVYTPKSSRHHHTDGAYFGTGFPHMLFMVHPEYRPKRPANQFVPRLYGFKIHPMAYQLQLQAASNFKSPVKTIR

Sequence of CK2alpha (P68400 whole entry): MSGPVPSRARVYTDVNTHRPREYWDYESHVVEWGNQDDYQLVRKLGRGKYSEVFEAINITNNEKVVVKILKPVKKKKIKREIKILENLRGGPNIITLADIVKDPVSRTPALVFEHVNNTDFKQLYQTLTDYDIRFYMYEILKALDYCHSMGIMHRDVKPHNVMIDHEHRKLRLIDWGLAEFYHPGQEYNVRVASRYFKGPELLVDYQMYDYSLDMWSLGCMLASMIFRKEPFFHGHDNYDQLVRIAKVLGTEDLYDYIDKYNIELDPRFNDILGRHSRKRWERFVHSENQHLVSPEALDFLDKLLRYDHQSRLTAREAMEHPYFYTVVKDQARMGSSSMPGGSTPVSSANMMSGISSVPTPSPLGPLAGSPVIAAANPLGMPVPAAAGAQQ

Substance: CK2alpha (from UniProt P68400)
- Kd: 4 nM
